Values quoted from earlier work, collected in publication PMC2943937.

Target: CAR (Mus musculus) (UniProt P97792)
Chain of UniProt P97792 (P97792 20-237): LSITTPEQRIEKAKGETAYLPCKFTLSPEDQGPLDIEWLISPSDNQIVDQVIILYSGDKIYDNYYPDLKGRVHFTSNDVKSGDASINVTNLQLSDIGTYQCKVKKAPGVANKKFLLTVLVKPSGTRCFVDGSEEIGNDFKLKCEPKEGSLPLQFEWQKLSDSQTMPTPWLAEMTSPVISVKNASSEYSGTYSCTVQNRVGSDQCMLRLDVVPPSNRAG

Kd: 5 µM
Substance: JAML (from UniProt Q80UL9)
